Results from PMC5839066.

Biological target: RFP-p62 (UniProt Q13501)
Assay: co-IP; COS-7 cells cotransfected with HTT fragment and RFP-p62, 100 nM bafilomycin for 4 h; lysates in SDP buffer; p62 immunoprecipitated (anti-p62 MBL PM045) overnight at 4 °C; co-precipitated HTT blotted and normalised to input

fold binding relative to cleavable mHTT: 2 fold
Substance: HTT aa1-1212 138Q-C6R (domain or fragment)
